According to the nanobody polyreactivity screen of Harvey et al. (2022):

Assay: yeast display, Sf9 membrane polyspecificity reagent, FACS + sequencing; frameworks hold sequencing errors
Procedure, shortened: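 A nanobody's polyreactivity label depends on the gate it was sorted from. Yeast display cells were stained with 10% biotinylated, detergent-solubilized Sf9 membrane reagent for 1 hour at 4 °C, enriched on streptavidin microbeads and sorted by FACS. The low and high (top ~1%) gates were set on anti-HA fluorescence for expression and streptavidin fluorescence for reagent binding.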
With “QVQLVESGGGLVQAGGSLRLSCAASGRTLPATGMGWYRQAPGKERELVAAINWRGGITYYADSVKGRFTISRDNAKNTVYLQMNSLKPVDTAVYYCARLRYFLLNGSLRYGTSDRDYWGQGTQVTVSS” the “polyreactivity (PSR sort gate)” value was “high polyreactivity”. In the case of “QVQLVESGGGLVQAGGSLRLSCAASGRTLPYYAMGWYRQAPGKERELVATISSRGGSTYYADSVKGRFTISRDNAKNTVYLQMNSLKPEDTAVYYCAARGNTPRTRRYGYWGQGTQVTVSS”, the “polyreactivity (PSR sort gate)” value is reported as “high polyreactivity”. With “QVQLVESGGGLVQAGGSLRLSCAASGRTLQYNAMGWYRQAPGKEMELVAAISSSGGSTYYADSVKGRFTISRDNAKNTVYLQMNSLKPEDTALYYCNAYSQSWNFYGDGDYWGQGTLVTVSS” the “polyreactivity (PSR sort gate)” value was “low polyreactivity”. With “QVQLVESGGGLVQAGGSLRLSCAASGRTLRLYVMGWYRQAPGKERELVAAISRSGGRTYYADSVKGRFTISRDNATNTVYLQMNSLKPEDTAVYYCAADSGRYGYDYWGQGTLVTVSS” the “polyreactivity (PSR sort gate)” value was “high polyreactivity”. With “QVQLVESGGGLVQAGGSLRLSCAASGRTLSRNAMGWSRQAPGKEREFVAAISSRGTSTYYADSVKGRFTISRDNAKNTVYLQMNSLKPEDTAVYYCATTLGGNYGYDYWGQGTQVTVSS” the “polyreactivity (PSR sort gate)” value was “high polyreactivity”. In the case of “QVQLVESGGGLVQAGGSLRLSCAASGRTLTFYAMGWYRQAPGTERELVAAITWRAGSTYYADSVKGRFTISRDNAKNTVYLQMNSMKPEDTAVYYCAREPYSASHVYGLYRGYDYWGQGTQVTVSS”, the “polyreactivity (PSR sort gate)” value is reported as “low polyreactivity”. With “QVQLVESGGGLVQAGGSLRLSCAASGRTLTGNAMGWYRQAPGKERELVAAITARGGSTYYADSVKGRFTISRDIAKNTVYLQMNSLKPEDSAVYYCATLPVRIRRDYWGQGTQVTVSS” the “polyreactivity (PSR sort gate)” value was “high polyreactivity”. In the case of “QVQLVESGGGLVQAGGSLRLSCAASGRTLTSYAMGWYRQAPGKERELVARISNGGNTKYADSVNGRFTISRDNAKNTVYLQMNSLKPEDTAVYYCAADYSYYHGPSRHKHDYWGQGTKVTVSS”, the “polyreactivity (PSR sort gate)” value is reported as “low polyreactivity”. In the case of “QVQLVESGGGLVQAGGSLRLSCAASGRTLVGYAMGWYIQAPGKERELVAAISSRGGGTYYADSVKGRFTISRDNAKNTVYLQMNSLKQEDTAVYYCEVSGASYSWGQGTQVTVSS”, the “polyreactivity (PSR sort gate)” value is reported as “high polyreactivity”. With “QVQLVESGGGLVQAGGSLRLSCAASGRTLVLYAMGWYRQAPGKERELVAAITWSGDSTYYADSVKGRFTISRDNAKNTVYLQMNSLKPEDTAVYYCAATYLNAKRGLRYDYWGQDTQVTVSS” the “polyreactivity (PSR sort gate)” value was “low polyreactivity”. In the case of “QVQLVESGGGLVQAGGSLRLSCAASGRTLYGYPMGWYRQAPGKERELVAAISKRGTRTYYADSVKGRFTISRDNAKNTVYIQMNSLKPEDTAVYYCAARYPPDEATMVYWGQGTQVTVSS”, the “polyreactivity (PSR sort gate)” value is reported as “high polyreactivity”. With “QVQLVESGGGLVQAGGSLRLSCAASGRTLYKYAMGLYRQAPGKERELFATISSGGRTNYADSVKGRFTISRDNSKNTVYLQMNSLKPEDTAVYYCAAQNRPRYYSGDYWGQGSQVTVSS” the “polyreactivity (PSR sort gate)” value was “low polyreactivity”. With “QVQLVESGGGLVQAGGSLRLSCAASGRTLYRYTMGWYRQAPGKERELVAAISRGGSTYYADSVKGRFTISRDNAKNTVYLQMNSLKPEDTAVYYCAAVYSYTSWQTWWPEYDYWGQGTQVTVSS” the “polyreactivity (PSR sort gate)” value was “high polyreactivity”. For “QVQLVESGGGLVQAGGSLRLSCAASGRTSDGYAMGWYRQAPGKERELVAGITEGGGDTYYADSVKGRFTISRDNAKNTVYLQMNSLKPEDSAVYYCNAVEGSRLPYDYWGQGTQVTVSS”, the “polyreactivity (PSR sort gate)” value was “low polyreactivity”. With “QVQLVESGGGLVQAGGSLRLSCAASGRTSGINAMGWYRQSPGKERELVAAISSGGRTYYADSVKGRFTISRDNAKNTVYLQMNSLKPEDTAVYYCAAVIHWSLYRRMEYWGQGTQVTVSS” the “polyreactivity (PSR sort gate)” value was “high polyreactivity”. With “QVQLVESGGGLVQAGGSLRLSCAASGRTSGNYAMGWYRPAPGKERELVAAMRYSGSSTFYADSVKGRFTISRDNAKNTVYLQMNSLKPEDTAVYYCARDIRRKGFRYDYWGQGTQVTVSS” the “polyreactivity (PSR sort gate)” value was “high polyreactivity”. In the case of “QVQLVESGGGLVQAGGSLRLSCAASGRTSIYNAMGWYRQAPGKDREFVAAITSSGGSTYYADSVKGRFTISRDNAKNTVYLQMNSLKPEDTAVYYCAARPAYVYAYYRYGYWGQGTQVTVSS”, the “polyreactivity (PSR sort gate)” value is reported as “high polyreactivity”. In the case of “QVQLVESGGGLVQAGGSLRLSCAASGRTSKVYAMGWYRQAPGKERELVARITSSGVRTYYADSVKGRFTISRDNAKNTVYLQMNSLKPEDTAVYYCAKDARALWLHSGIYDYWGQGTQVTVSS”, the “polyreactivity (PSR sort gate)” value is reported as “low polyreactivity”. With “QVQLVESGGGLVQAGGSLRLSCAASGRTSRIYAMGLYRQAPGKERELVASISRRGGITYYADSVKGRFTISRDNAKTTVDFQMTSLKPEDTAVYYSASYYTNKVPARYYWGQGTEVTVSS” the “polyreactivity (PSR sort gate)” value was “high polyreactivity”. In the case of “QVQLVESGGGLVQAGGSLRLSCAASGRTSRYYAMGWYRQAPGKERELVATITRGGTTNYADSVKGRFTISRDNAKNNVYLQMNSLKPEDTAVYYCNKVFRAPGVSDYGYWGQGTQVTVSS”, the “polyreactivity (PSR sort gate)” value is reported as “high polyreactivity”. With “QVQLVESGGGLVQAGGSLRLSCAASGRTSTIYTMGWYRQAPGKEREFVASISAGAGTYYADSVKGRFTISRDNAKNTVYLQMNSLKPEDTAVYYCSASVYWRSTRRHQMDYWGQGTQVTVSS” the “polyreactivity (PSR sort gate)” value was “high polyreactivity”. For “QVQLVESGGGLVQAGGSLRLSCAASGRTSVRYAMGWYRQAPGKERELVAAISWSGGSTYYADSVKGRFTISRDNAKNTVYLQMNSLKPEDTAVYYCNAQHARGYYYWGQGTQVTVSS”, the “polyreactivity (PSR sort gate)” value was “low polyreactivity”. For “QVQLVESGGGLVQAGGSLRLSCAASGRTSVVNAMGWYRQAPGKERELVAAITSGGSTHYADSVKGRFTISRDNAKNTVYLQMNSLKPEDTAVYYCNARDRRRTNLLDYWGQGTQVTVSS”, the “polyreactivity (PSR sort gate)” value was “low polyreactivity”. For “QVQLVESGGGLVQAGGSLRLSCAASGRTSWYYAMGWYRQAPGNERELVATITRSTGSTYYADSVKGRFTISRDNAKNTVYLQMNCLKPEDTAVYDCARLYYFNGDYWGQGTQVTVSS”, the “polyreactivity (PSR sort gate)” value was “high polyreactivity”. In the case of “QVQLVESGGGLVQAGGSLRLSCAASGRTSYGYAMGWYRQAPGKERDLFAAITYGGGSTYYADTVKGRFTISRDNANNTVYLQMNSLIPEDTALYYCAADRTGSTLYTISYYYWGQGTQVTVSS”, the “polyreactivity (PSR sort gate)” value is reported as “low polyreactivity”. In the case of “QVQLVESGGGLVQAGGSLRLSCAASGRTVDWYAMGWYRQAPGTDRELVAVISSSGGRTYYADSVKGRFTISRDNAKNTVYLQMNRLKPEDTAVYYCATQNGSKRYSYYYWGQGTQVTVSS”, the “polyreactivity (PSR sort gate)” value is reported as “high polyreactivity”. In the case of “QVQLVESGGGLVQAGGSLRLSCAASGRTVVTNAMGWYRQAPGKERELVATINWSGGRTHYADSVKGRFTISRDNAKITVYLQMNSLIPEDTAVYYCAKASSRRYWTIRDGDYWGQGTQVTVAS”, the “polyreactivity (PSR sort gate)” value is reported as “low polyreactivity”. With “QVQLVESGGGLVQAGGSLRLSCAASGRTYGGNAMGWYRQAPGKERELVAAITVSAGHTYYADSVKGRFTISRDNAKNTVYLQMKSLKPEDTAVYYCAKVYHWYYSYDYWGQGTQVTVSS” the “polyreactivity (PSR sort gate)” value was “low polyreactivity”. For “QVQLVESGGGLVQAGGSLRLSCAASGRTYGNYAMGWSRPAPGKERELVAGITYRSGRTYYADSVKGRFTISRDNAKITFYLQMNSLKPEDTAVYYCAAASYYLTPKHDYWGQGTQVTVSW”, the “polyreactivity (PSR sort gate)” value was “high polyreactivity”. With “QVQLVESGGGLVQAGGSLRLSCAASGRTYGWYAMGWYRQAPGKERELVAAIRSSGGRTHYADSVKGRFTISRDNAKNTVYLQMNSLKPEDTAVYYCAARYSAAYYWGQGTQVTVSS” the “polyreactivity (PSR sort gate)” value was “high polyreactivity”. For “QVQLVESGGGLVQAGGSLRLSCAASGRTYINNAMGWYRQAPGKERELVAAISRRGGSTYYADSVKGRFTISRDNAKNTVYLQMNSLKPEDTAVSYCAADAFRSQRPYTYDYWGQGTQVTVSS”, the “polyreactivity (PSR sort gate)” value was “high polyreactivity”. For “QVQLVESGGGLVQAGGSLRLSCAASGRTYKINAMGCYRQAPGKERELVASISRTGGTTYYADSVKGRFTNSRDNAKNTVYLQMNSLNPEDTAVYYCAVSDFGLLDCLTIYDEYDYWGQGTQVTVSS”, the “polyreactivity (PSR sort gate)” value was “high polyreactivity”. In the case of “QVQLVESGGGLVQAGGSLRLSCAASGRTYNPYAMGWYRQAPGKERELVAVISSIGGSTYADSVTGRFTISRDNAKNTVYLQMNSLKTEDTAVFYCNRATFGQWGGDYWGQGTQVTVSS”, the “polyreactivity (PSR sort gate)” value is reported as “high polyreactivity”. With “QVQLVESGGGLVQAGGSLRLSCAASGRTYRSYTMGWYRQAPGKERELVASISRRGGSTYYADSVKGRFTISRDNAKNTVYLQMNSLKPEDTAVYYCAAVNVYDAYEYWGQGTQVTVSS” the “polyreactivity (PSR sort gate)” value was “high polyreactivity”. With “QVQLVESGGGLVQAGGSLRLSCAASGRTYSRNAMGWYRQAPGKERELVATISRGGGITFYADSVKGRFTISRDNAKNTVYLQMNSLKPEDTAVYYCAAQYYYWTRRPGDYWGQGTQVTVSS” the “polyreactivity (PSR sort gate)” value was “high polyreactivity”. With “QVQLVESGGGLVQAGGSLRLSCAASGRTYVVKAMGWYRQAPGKERELVAAIIRGNTYYADSVKGRFTISRDNAKNTVYLQMNSLKPEDTAVYYCAARYSPYKYYYWGQGTQVTVSS” the “polyreactivity (PSR sort gate)” value was “high polyreactivity”. For “QVQLVESGGGLVQAGGSLRLSCAASGRTYYGNAMGWYRQAPGKERELVAAITSGGGSTRYADSVKGRFTISRDNAKNTVYLQMNSLKPEDTAVYYCNATLGNFGYRRYSGHTRYYYWGQGTQVTVSS”, the “polyreactivity (PSR sort gate)” value was “high polyreactivity”. For “QVQLVESGGGLVQAGGSLRLSCAASGRVYAMGWYRQAPGKERELVAPITTSGGRTYYADSVKGRFTISRDNAKNSVYCQMNSLKPEDTAVYYCNKPGYPPSDMYYWGQGTQVNVSS”, the “polyreactivity (PSR sort gate)” value was “low polyreactivity”. With “QVQLVESGGGLVQAGGSLRLSCAASGSFINRYAMGWYRQAPGKERELVAAITQSGGRTYYADSVKGRFTISRDNAKNTVYLQMNSLKPEDTAVYYCNAVRWYLYDYWGQGTQVTVSS” the “polyreactivity (PSR sort gate)” value was “high polyreactivity”. With “QVQLVESGGGLVQAGGSLRLSCAASGSICDRNAMGWYRQAPGKERELVANITWSGVSTYYADSVKGRFTMSRDNAKNTVYLQMNSLKPDDTAVYYCNADYSYRHWYDPGQYGQAMGYWGQGTQVTVSS” the “polyreactivity (PSR sort gate)” value was “low polyreactivity”. In the case of “QVQLVESGGGLVQAGGSLRLSCAASGSICGPYALGWYRQAPGKERELVAAITWTGGRTYYADSVKGRFTISRDNAKNTVYFQMNSLKPEDTAVYYCAADYSPSTWYLYYTLYYYWGQGTQVTVSS”, the “polyreactivity (PSR sort gate)” value is reported as “low polyreactivity”. In the case of “QVQLVESGGGLVQAGGSLRLSCAASGSIFAANAMGWYRQAHGKERELVAAISWSGGYTYADSVKGRFTISRDNAKNTVYLQMKSLKPEDTAFYYCAADLWSQYKFGYWGQGTLVTVSS”, the “polyreactivity (PSR sort gate)” value is reported as “low polyreactivity”. In the case of “QVQLVESGGGLVQAGGSLRLSCAASGSIFAANAMGWYRQAPGKERELVAAISWSGGSTYADSVKGRFTISRDNAKNTVYLQMNSLKPEDTAVYYCNAYVYVGTGRGYDTLDYWGQGTQVTVSS”, the “polyreactivity (PSR sort gate)” value is reported as “low polyreactivity”.
